Experimental data from patent US20150344570A1 (published 2015).

B1: GpH7-A5/GpH7-B3 variant G236_13S/GpL16-k0 (antibody, human IgG1, kappa)
heavy 1: not shown
heavy 2: not shown
light: DIVMTQSPLSLPVTPGEPASISCQASESLVHSNRNTYLHWYLQKPGQSPQLLIYKVSNRFSGVPDRFSGSGSGTDFTLKISRVEAEDVGVYYCSQNTHVPPTFGQGTKVEIERTVAAPSVFIFPPSDEQLKSGTASVVCLLNNFYPREAKVQWKVDNALQSGNSQESVTEQDSKDSTYSLSSTLTLSKADYEKHKVYACEVTHQGLSSPVTKSFNRGEC
notes: IgG1, anti-glypican-3; also called He Ab
B2: GpH7-A5/GpH7-B3 variant P331_03V/GpL16-k0 (He Ab) (antibody, human IgG1, kappa)
heavy 1: not shown
heavy 2: not shown
light: B1 light
notes: Heterodimerized antibody with the alteration in one H chain only
B3: GpH7-A5/GpH7-B3 variant L328_16H/GpL16-k0 (He Ab) (antibody, human IgG1, kappa)
heavy 1: not shown
heavy 2: not shown
light: B1 light
notes: as for B2
B4: GpH7-A5/GpH7-B3 variant L328_06M/GpL16-k0 (He Ab) (antibody, human IgG1, kappa)
heavy 1: not shown
heavy 2: not shown
light: B1 light
notes: as for B2
B5: GpH7-A5/GpH7-B3 variant L235_04F/GpL16-k0 (antibody, human IgG1, kappa)
heavy 1: not shown
heavy 2: not shown
light: B1 light
notes: as for B1
B6: GpH7-A5/GpH7-B3 variant P238_02A/GpL16-k0 (antibody, human IgG1, kappa)
heavy 1: not shown
heavy 2: not shown
light: B1 light
notes: as for B1
B7: GpH7-A5/GpH7-B3 variant L235_16H/GpL16-k0 (antibody, human IgG1, kappa)
heavy 1: not shown
heavy 2: not shown
light: B1 light
notes: as for B1
B8: GpH7-A5/GpH7-B3 variant L235_15Y/GpL16-k0 (antibody, human IgG1, kappa)
heavy 1: not shown
heavy 2: not shown
light: B1 light
notes: as for B1
B9: GpH7-A5/GpH7-B3 variant G237_15Y/GpL16-k0 (antibody, human IgG1, kappa)
heavy 1: not shown
heavy 2: not shown
light: B1 light
notes: as for B1
B10: GpH7-A5/GpH7-B3 variant L328_15Y/GpL16-k0 (He Ab) (antibody, human IgG1, kappa)
heavy 1: not shown
heavy 2: not shown
light: B1 light
notes: as for B2
B11: GpH7-A5/GpH7-B3 variant G237_20W/GpL16-k0 (antibody, human IgG1, kappa)
heavy 1: not shown
heavy 2: not shown
light: B1 light
notes: as for B1
B12: GpH7-A5/GpH7-B3 variant G237_05P/GpL16-k0 (antibody, human IgG1, kappa)
heavy 1: not shown
heavy 2: not shown
light: B1 light
notes: as for B1
B13: GpH7-A5/GpH7-B3 variant G237_19Q/GpL16-k0 (antibody, human IgG1, kappa)
heavy 1: not shown
heavy 2: not shown
light: B1 light
notes: as for B1
B14: GpH7-A5/GpH7-B3 variant P331_06M/GpL16-k0 (He Ab) (antibody, human IgG1, kappa)
heavy 1: not shown
heavy 2: not shown
light: B1 light
notes: as for B2
B15: GpH7-A5/GpH7-B3 variant G237_16H/GpL16-k0 (antibody, human IgG1, kappa)
heavy 1: not shown
heavy 2: not shown
light: B1 light
notes: as for B1
B16: GpH7-A5/GpH7-B3 variant G237_08L/GpL16-k0 (antibody, human IgG1, kappa)
heavy 1: not shown
heavy 2: not shown
light: B1 light
notes: as for B1
B17: GpH7-A5/GpH7-B3 variant G237_13S/GpL16-k0 (antibody, human IgG1, kappa)
heavy 1: not shown
heavy 2: not shown
light: B1 light
notes: as for B1
B18: GpH7-A5/GpH7-B3 variant L234_09D/GpL16-k0 (antibody, human IgG1, kappa)
heavy 1: not shown
heavy 2: not shown
light: B1 light
notes: as for B1
B19: GpH7-A5/GpH7-B3 variant L328_14T/GpL16-k0 (He Ab) (antibody, human IgG1, kappa)
heavy 1: not shown
heavy 2: not shown
light: B1 light
notes: as for B2
B20: GpH7-A5/GpH7-B3 variant G237_04F/GpL16-k0 (antibody, human IgG1, kappa)
heavy 1: not shown
heavy 2: not shown
light: B1 light
notes: as for B1
B21: GpH7-A5/GpH7-B3 variant L328_18N/GpL16-k0 (He Ab) (antibody, human IgG1, kappa)
heavy 1: not shown
heavy 2: not shown
light: B1 light
notes: as for B2
B22: GpH7-A5/GpH7-B3 variant G237_09D/GpL16-k0 (antibody, human IgG1, kappa)
heavy 1: not shown
heavy 2: not shown
light: B1 light
notes: as for B1
B23: GpH7-A5/GpH7-B3 variant P238_01G/GpL16-k0 (antibody, human IgG1, kappa)
heavy 1: not shown
heavy 2: not shown
light: B1 light
notes: as for B1
B24: GpH7-A5/GpH7-B3 variant I332_11K/GpL16-k0 (He Ab) (antibody, human IgG1, kappa)
heavy 1: not shown
heavy 2: not shown
light: B1 light
notes: as for B2
B25: GpH7-A5/GpH7-B3 variant L235_20W/GpL16-k0 (antibody, human IgG1, kappa)
heavy 1: not shown
heavy 2: not shown
light: B1 light
notes: as for B1
B26: GpH7-A5/GpH7-B3 variant G237_18N/GpL16-k0 (antibody, human IgG1, kappa)
heavy 1: not shown
heavy 2: not shown
light: B1 light
notes: as for B1
B27: GpH7-A5/GpH7-B3 variant P329_20W/GpL16-k0 (He Ab) (antibody, human IgG1, kappa)
heavy 1: not shown
heavy 2: not shown
light: B1 light
notes: as for B2
B28: GpH7-A5/GpH7-B3 variant L328_10E/GpL16-k0 (He Ab) (antibody, human IgG1, kappa)
heavy 1: not shown
heavy 2: not shown
light: B1 light
notes: as for B2
B29: GpH7-A5/GpH7-B3 variant G236_18N/GpL16-k0 (antibody, human IgG1, kappa)
heavy 1: not shown
heavy 2: not shown
light: B1 light
notes: as for B1
B30: GpH7-A5/GpH7-B3 variant G237_06M/GpL16-k0 (antibody, human IgG1, kappa)
heavy 1: not shown
heavy 2: not shown
light: B1 light
notes: as for B1
B31: GpH7-A5/GpH7-B3 variant P331_04F/GpL16-k0 (He Ab) (antibody, human IgG1, kappa)
heavy 1: not shown
heavy 2: not shown
light: B1 light
notes: as for B2
B32: GpH7-A5/GpH7-B3 variant G237_10E/GpL16-k0 (antibody, human IgG1, kappa)
heavy 1: not shown
heavy 2: not shown
light: B1 light
notes: as for B1

What was measured:
[1] = target: T1, FcγRIIb extracellular domain with C-terminal His tag (human, UniProt P31994 43-217); assay: SPR (Biacore), relative to GpH7-A5/GpH7-B3/GpL16-k0 = 100
T1 construct: extracellular domain; also called 2b; FcgRIIb; not shown: His tag at the C terminus
T1 sequence (looked up): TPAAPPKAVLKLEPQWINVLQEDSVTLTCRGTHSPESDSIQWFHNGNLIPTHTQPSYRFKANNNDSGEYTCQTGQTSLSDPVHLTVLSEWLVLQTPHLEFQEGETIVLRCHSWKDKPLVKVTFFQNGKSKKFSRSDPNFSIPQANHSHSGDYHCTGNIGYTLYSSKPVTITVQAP

[2] = target: T2, FcγRIIIa extracellular domain with C-terminal His tag (human, UniProt P08637 17-208); assay: as above
T2 construct: extracellular domain; also called 3a; FcgRIIIa; not shown: His tag at the C terminus
T2 sequence (P08637 17-208): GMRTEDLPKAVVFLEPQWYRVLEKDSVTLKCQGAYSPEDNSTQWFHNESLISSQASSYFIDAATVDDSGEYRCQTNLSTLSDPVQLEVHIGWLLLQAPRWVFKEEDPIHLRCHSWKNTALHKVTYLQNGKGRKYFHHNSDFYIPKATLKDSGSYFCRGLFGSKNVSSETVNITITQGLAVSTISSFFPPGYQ

[3] = target: T2, FcγRIIIa extracellular domain with …; assay: SPR (Biacore); ratio of He/Con_3a (FcγRIIIa) to He/Con_2b (FcγRIIb)
[4] = target: T3, FcγRIIb extracellular domain with C-terminal His tag (human, UniProt P31994 43-217); assay: SPR (Biacore), antibody captured on antigen peptide chip, FcγR as analyte; relative binding
T3 construct: extracellular domain; also called FcgRIIb; 2b; not shown: His tag attached to the C terminus
T3 sequence (looked up): T1 sequence (looked up)
Protocol: (§1) The heterodimerized antibodies He Abs in which one of the H chains was introduced with an alteration were assayed for their binding activities to each activating FcγR and inhibitory FcγR according to the method described in Example 4. […] The activating FcγRs in FIGS. 26, 27, 28, and 29 are FcγRIa, FcγRIIa (R), FcγRIIa (H), and FcγRIIIa, respectively.
(§2) Analysis of interaction between objective antibody and the FcγR was carried out using Biacore T100 (GE Healthcare). HBS-EP+ (GE Healthcare) was used as the running buffer, and the measurement temperature was set to 25° C. Chips produced by immobilizing the antigen peptide by the amine coupling method to a Series S Sencor Chip CM5 (GE Healthcare), or alternatively, chips produced by allowing preliminarily biotinylated antigen peptides to interact with and immobilize onto a Series S Sensor Chip SA (certified) (GE Healthcare) were used. Antibodies of interest were captured onto an antigen peptide-immobilized chip, and allowed to interact to each FcγR diluted with running buffer. To regenerate and repeatedly use the chip, the antibodies captured on the chip were washed off by reacting 10 mM glycine-HCl, pH 1.5.

[5] = target: T4, FcγRIIIa extracellular domain with C-terminal His tag (human, UniProt P08637 17-208); assay: as above
T4 construct: extracellular domain; also called FcgRIIIa; 3a; not shown: His tag attached to the C terminus
Protocol: as §1, §2
T4 sequence (P08637 17-208): as above

| Binder | He/Con_2b [1] | He/Con_3a [2] | He_3a/2b (IIIa/IIb) [3] | He/Con_2b [4] | He/Con_3a [5] |
| --- | --- | --- | --- | --- | --- |
| B1 | 96.7 % (control = 100) | 64.8 % (control = 100) | 0.67 | – | – |
| B2 | – | – | – | 119 % of GpH7-A5/GpH7-B3/GpL16-k0 (=100) | 73.2 % of GpH7-A5/GpH7-B3/GpL16-k0 (=100) |
| B3 | – | – | – | 80.6 % of GpH7-A5/GpH7-B3/GpL16-k0 (=100) | 54.3 % of GpH7-A5/GpH7-B3/GpL16-k0 (=100) |
| B4 | – | – | – | 142 % of GpH7-A5/GpH7-B3/GpL16-k0 (=100) | 78.6 % of GpH7-A5/GpH7-B3/GpL16-k0 (=100) |
| B5 | 118 % (control = 100) | 79.1 % (control = 100) | 0.67 | – | – |
| B6 | 57.4 % (control = 100) | 31.4 % (control = 100) | 0.55 | – | – |
| B7 | 76.9 % (control = 100) | 59.1 % (control = 100) | 0.77 | – | – |
| B8 | 149 % (control = 100) | 80.6 % (control = 100) | 0.54 | – | – |
| B9 | 152 % (control = 100) | 22.1 % (control = 100) | 0.14 | – | – |
| B10 | – | – | – | 193 % of GpH7-A5/GpH7-B3/GpL16-k0 (=100) | 68.3 % of GpH7-A5/GpH7-B3/GpL16-k0 (=100) |
| B11 | 193 % (control = 100) | 19.7 % (control = 100) | 0.1 | – | – |
| B12 | 24.6 % (control = 100) | 10.9 % (control = 100) | 0.44 | – | – |
| B13 | 108 % (control = 100) | 43.3 % (control = 100) | 0.4 | – | – |
| B14 | – | – | – | 102 % of GpH7-A5/GpH7-B3/GpL16-k0 (=100) | 74.8 % of GpH7-A5/GpH7-B3/GpL16-k0 (=100) |
| B15 | 55.2 % (control = 100) | 17.2 % (control = 100) | 0.31 | – | – |
| B16 | 148 % (control = 100) | 24.9 % (control = 100) | 0.17 | – | – |

| Binder | He/Con_2b [1] | He/Con_3a [2] | He_3a/2b (IIIa/IIb) [3] | He/Con_2b [4] | He/Con_3a [5] |
| --- | --- | --- | --- | --- | --- |
| B17 | 111 % (control = 100) | 38.4 % (control = 100) | 0.35 | – | – |
| B18 | 150 % (control = 100) | 117 % (control = 100) | 0.78 | – | – |
| B19 | – | – | – | 141 % of GpH7-A5/GpH7-B3/GpL16-k0 (=100) | 75.3 % of GpH7-A5/GpH7-B3/GpL16-k0 (=100) |
| B20 | 149 % (control = 100) | 25.3 % (control = 100) | 0.17 | – | – |
| B21 | – | – | – | 80.8 % of GpH7-A5/GpH7-B3/GpL16-k0 (=100) | 49.7 % of GpH7-A5/GpH7-B3/GpL16-k0 (=100) |
| B22 | 223 % (control = 100) | 17.7 % (control = 100) | 0.08 | – | – |
| B23 | 56 % (control = 100) | 33 % (control = 100) | 0.59 | – | – |
| B24 | – | – | – | 70.9 % of GpH7-A5/GpH7-B3/GpL16-k0 (=100) | 45.1 % of GpH7-A5/GpH7-B3/GpL16-k0 (=100) |
| B25 | 147 % (control = 100) | 76.4 % (control = 100) | 0.52 | – | – |
| B26 | 180 % (control = 100) | 20.3 % (control = 100) | 0.11 | – | – |
| B27 | – | – | – | 45.1 % of GpH7-A5/GpH7-B3/GpL16-k0 (=100) | 31.7 % of GpH7-A5/GpH7-B3/GpL16-k0 (=100) |
| B28 | – | – | – | 172 % of GpH7-A5/GpH7-B3/GpL16-k0 (=100) | 53.4 % of GpH7-A5/GpH7-B3/GpL16-k0 (=100) |
| B29 | 96.4 % (control = 100) | 37.8 % (control = 100) | 0.39 | – | – |
| B30 | 130 % (control = 100) | 31.9 % (control = 100) | 0.25 | – | – |
| B31 | – | – | – | 110 % of GpH7-A5/GpH7-B3/GpL16-k0 (=100) | 77.3 % of GpH7-A5/GpH7-B3/GpL16-k0 (=100) |
| B32 | 114 % (control = 100) | 25.4 % (control = 100) | 0.22 | – | – |
